The record followed here is patent EP0896002A1, “CHIMERIC PROTEINS, HETERODIMER COMPLEXES THEREOF AND SUBSTITUTE FOR PLATELET” (TORAY INDUSTRIES, INC., priority 1997, dated 1998).

The target of the assay is T1, α4·IgG heavy chain-β1·IgG heavy chain chimeric protein heterodimer complex (integrin α4β1; sequence Nos. 1 and 2) (Homo sapiens, UniProt P05556+P13612).
T1 construct: made in house; culture supernatant used in the assay
The assay is described as follows: Inhibition of the binding of the α4·IgG heavy chain-β1·IgG heavy chain chimeric protein heterodimer complex to solid-phase CS-1-IgG (peptide fragment of fibronectin), ELISA-type detection at 490 nm. To be noted: for IC50: binding assay system of Example 9: binding to CS-1-IgG, cyclic phage-library peptides, read-out: Inhibitory activity IC50; for inhibition at 100 µg/mL: compound concentration 100 μg/ml; for inhibition at 100 µg/mL / inhibition at 50 µg/mL: read-out: Inhibition rate (%). On the procedure:
At first, according to the said report (Humphries, M. J. et al., J. Biol. Chem., 262, 6886-6892 (1987)), the peptide fragment of sequence No. 3 (CS-1 peptide) was bound to rabbit IgG (Sigma), to prepare CS-1-IgG. The CS-1-IgG was diluted by PBS(-), and put in a 96-well immunoplate (NUNC) by 100 µl/well, and allowed to stand at 4°C for 16 hours, to be formed as a solid phase on the plate.
After completion of standing, the surface of the plate was washed with PBS(-) twice and treated with denatured 1% BSA(heat-natured at 80°C for 10 minutes)-PBS solution ( 300 µl/well) at 4°C for 3 hours to block the nonspecific reaction. Then, the solid phase CS-1-IgG and the CHO culture supernatant (100 µl) containing α4·IgG heavy chain-β1·IgG heavy chain chimeric protein heterodimer complex were reacted with each other at 30°C for 3 hours. The non-bound α4·IgG heavy chain-β1·IgG heavy chain chimeric protein heterodimer complex was removed by washing with 0.1% BSA-containing TBS buffer (150 mM NaCl, 25 mM Tris-HCl, 1 mM MnCl2, pH 7.4) twice, and the bound α4·IgG heavy chain-β1·IgG heavy chain chimeric protein heterodimer complex was detected by biotin labeled anti-human IgG antibody (Vector) as the primary antibody and avidin labeled horseradish peroxidase (Sigma) as the secondary antibody. The surface of the plate was washed with the TBS buffer. Orthophenylenediamine was added as a substrate to it for color development, and the absorbance at 490 nm were measured.
The all peptides were synthesized by a peptide synthesizer. The peptide and 100 µl of CHO cultured supernatant solution containing αα4·IgG heavy chain-β1·IgG heavy chain chimeric protein heterodimer complex were mixed at room temperature for 20 minutes, and the binding to CS-1-IgG was determined according to the method in Example 9.
At first, α4·IgG heavy chain-β1·IgG heavy chain chimeric protein heterodimer complex purified in Example 6, or human IgG was prepared at a proper concentration by PBS (-) and was coated on a plastic plate at 4°C for 16 hours, being formed as a solid phase on a plastic plate. Then, according to a report (Cott, J. K. and Smoth, G. P., Science, 249, 386-390 (1990)), a phage peptide library in which a random six amino acid residues were cyclyzed by the disulfide bond of cysteine at both the ends was prepared and suspended in 0.1% BSA-containing TBS buffer. The phage peptide library was reacted with human IgG at 30°C for 3 hours, to absorb phage peptides capable of being bound to IgG. Then, the non-absorbed phases were reacted with α4·IgG heavy chain-β1·IgG heavy chain chimeric protein heterodimer complex at 30°C for 3 hours, and the reaction mixture was washed with 0.1% BSA-containing TBS buffer twice to remove the phage peptides incapable of being bound to the heterodimer complex. Only the phage peptides capable of being bound were collected after elution with 0.1M glycine-hydrochloric acid (pH 2.2). After collection, the phage was amplified and the above mentioned binding operation was repeated further twice. The only the phage peptides capable of being bound to the heterodimer complex were selectively concentrated. In the final elution operation, phage peptides capable of being bound to the heterodimer complex were eluted using 10 mM EDTA and 0.1M glycine-hydrochloric acid in two steps, and the amino acid sequences of the respective peptides were analyzed. Furthermore, they were examined using the binding assay system of Example 9, and the IC50 values of the four peptide sequences showing binding inhibitory activity are shown in Table 1.
Reagents and reported compounds were picked up at random, adjusted to a final concentration of 50 or 100 µg/ml, and added to the binding determination system in Example 9. Compounds showing inhibitory activity were obtained. […]

The mark [1] stands for this setting: binding determination system of Example 9 (CS-1-IgG).

Where two headings read alike, the source gives them in different places.

T1 sequence (P13612 35-977 limits assumed, change not shown): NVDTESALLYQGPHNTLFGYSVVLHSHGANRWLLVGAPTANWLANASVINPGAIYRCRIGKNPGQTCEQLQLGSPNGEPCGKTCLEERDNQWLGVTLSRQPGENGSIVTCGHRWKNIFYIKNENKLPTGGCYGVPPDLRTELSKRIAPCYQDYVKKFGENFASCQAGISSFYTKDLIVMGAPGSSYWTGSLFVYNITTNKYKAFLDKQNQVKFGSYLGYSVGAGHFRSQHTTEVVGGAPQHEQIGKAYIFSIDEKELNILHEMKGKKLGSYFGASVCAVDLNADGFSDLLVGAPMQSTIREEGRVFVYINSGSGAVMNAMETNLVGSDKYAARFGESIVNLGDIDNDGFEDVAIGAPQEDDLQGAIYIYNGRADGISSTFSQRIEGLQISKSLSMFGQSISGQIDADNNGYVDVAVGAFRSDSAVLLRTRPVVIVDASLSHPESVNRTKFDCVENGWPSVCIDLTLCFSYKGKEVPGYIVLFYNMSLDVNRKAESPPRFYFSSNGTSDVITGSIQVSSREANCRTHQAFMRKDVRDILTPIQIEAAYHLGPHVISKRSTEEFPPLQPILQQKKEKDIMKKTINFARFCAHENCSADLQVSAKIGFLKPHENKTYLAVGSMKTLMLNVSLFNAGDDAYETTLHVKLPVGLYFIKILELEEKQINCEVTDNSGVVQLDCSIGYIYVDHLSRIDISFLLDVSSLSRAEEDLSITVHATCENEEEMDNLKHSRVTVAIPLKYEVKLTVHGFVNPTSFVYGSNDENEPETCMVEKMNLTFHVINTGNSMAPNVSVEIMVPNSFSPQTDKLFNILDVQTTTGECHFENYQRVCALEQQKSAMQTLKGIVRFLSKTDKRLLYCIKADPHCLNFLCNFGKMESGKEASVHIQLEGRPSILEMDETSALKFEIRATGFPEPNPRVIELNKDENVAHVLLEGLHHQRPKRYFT
T1 sequence (P05556 21-728 limits assumed, change not shown): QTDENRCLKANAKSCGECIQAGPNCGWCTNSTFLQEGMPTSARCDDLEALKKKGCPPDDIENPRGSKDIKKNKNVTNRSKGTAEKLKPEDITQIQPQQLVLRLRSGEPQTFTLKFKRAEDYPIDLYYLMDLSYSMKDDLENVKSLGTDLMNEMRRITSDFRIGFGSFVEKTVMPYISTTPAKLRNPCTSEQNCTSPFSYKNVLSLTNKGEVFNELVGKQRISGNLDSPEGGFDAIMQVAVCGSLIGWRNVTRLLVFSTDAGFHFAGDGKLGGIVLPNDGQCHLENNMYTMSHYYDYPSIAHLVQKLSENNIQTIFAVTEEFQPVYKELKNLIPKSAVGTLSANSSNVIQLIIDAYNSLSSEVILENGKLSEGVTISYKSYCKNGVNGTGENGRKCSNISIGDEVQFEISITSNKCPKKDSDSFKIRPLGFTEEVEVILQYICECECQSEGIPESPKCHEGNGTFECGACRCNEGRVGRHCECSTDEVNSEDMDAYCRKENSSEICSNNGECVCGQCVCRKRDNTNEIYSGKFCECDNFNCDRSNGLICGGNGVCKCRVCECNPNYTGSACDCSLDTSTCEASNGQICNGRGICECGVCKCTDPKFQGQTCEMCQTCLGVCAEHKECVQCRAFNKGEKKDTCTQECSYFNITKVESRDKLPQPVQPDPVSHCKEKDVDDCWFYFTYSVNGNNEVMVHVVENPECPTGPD
T1 sequence (P01857 99-330 partner limits assumed): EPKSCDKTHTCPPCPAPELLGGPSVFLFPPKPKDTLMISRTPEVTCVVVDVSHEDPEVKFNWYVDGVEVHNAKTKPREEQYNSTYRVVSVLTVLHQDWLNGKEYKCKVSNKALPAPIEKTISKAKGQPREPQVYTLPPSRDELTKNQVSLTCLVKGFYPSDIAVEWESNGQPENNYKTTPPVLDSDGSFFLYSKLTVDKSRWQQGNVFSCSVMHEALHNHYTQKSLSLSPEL

Regarding “Cys* Met Arg Tyr Thr Ser Ala Cys* (MRYTSAC; printed: Met Arg Tyr Thr Ser Ala Cys) [Sequence No. 25]”, the IC50 (in general, the concentration needed to halve the response being measured) came out at 2300 nM. As to `O=C(O)CCCc1ccc2ccccc2c1` [γ-2-Naphtyl butyric acid, γ-2-Naphthyl butyric acid], the inhibition (usually how much of the control response was suppressed) at 100 µg/mL under setting [1] amounted to 37%. For `C#C[C@]1(O)CC[C@H]2[C@@H]3CCC4=C(CCC(=O)C4)[C@H]3CC[C@@]21C` [Norethynodrel], the inhibition at 50 µg/mL (compound concentration 50 μg/ml, binding determination system of Example 9 (CS-1-IgG)) amounted to 28%. On to “Cys* Ile Pro Glu Leu Ile Val Cys* (IPELIVC; printed: Ile Pro Glu Leu Ile Val Cys) [Sequence No. 24]”, for which the half-maximal inhibitory concentration (IC50) was 1200 nM. Take “Cys* Gly Leu Gln Ala Leu Pro Cys* (GLQALPC; printed: Gly Leu Gln Ala Leu Pro Cys) [Sequence No. 30]”: the IC50 turned out to be 10000 nM. For the compound `O=C(O)CC12CC3CC(CC(C3)C1)C2` [1-Adamantaneacetic acid], the inhibition at 100 µg/mL under setting [1] stood at 65%. Consider `CC(C)(S)[C@@H](N)C(=O)O` [D-Penicillamine], for which the inhibition at 50 µg/mL came out at 51%.

Take “Cys* Leu Arg Tyr Ser Val Pro Cys* (LRYSVPC; printed: Leu Arg Tyr Ser Val Pro Cys) [Sequence No. 28]”: the IC50 was 1800 nM.
